The target in the experiment is TatC from Pisum sativum (thylakoidal) (Pisum sativum (endogenous in pea thylakoids)). In words: native gel or EMSA. For orientation: In EMSA bound probe runs differently from free probe, usually more slowly.

The values below come from doi:10.1101/2025.01.10.632409.

As to “TatC from Pisum sativum (thylakoidal) (natural protein)”, the stoichiometry N – broadly, the number of molecules, sites or subunits per partner or assembly – came to 3.
